# Experimental data from PMC11344771, “The Chlamydia pneumoniae effector SemD exploits its host’s endocytic machinery by structural and functional mimicry” (Nature Communications, 2024).
# B1: SNX9-SH3 (domain or fragment)
# chain: MATKARVMYDFAAEPGNNELTVNEGEIITITNPDVGGGWLEGRNIKGERGLVPTDYVEILPS
# B2: Cdc42 bound to a non-hydrolysable GTP analogue (Cdc42_(GppNHp)) (natural protein)
# chain: not shown
# notes: human CDC42 in pGEX-4T-1; also called Cdc42_(mGppNHp); active Cdc42; source: E. coli Rosetta, purified (Glutathione sepharose, thrombin cleavage), loaded with GppNHp or mGppNHp
# Legend:
# SemDΔAPH_(67-382) = molecular target: T1, SemDΔAPH_(67-382) (Chlamydia pneumoniae); assay: SEC-SAXS; Superdex200 increase 10/300 GL, PBS pH 8.5 + 3 % glycerol, 20 °C; 8 mg/ml SemDΔAPH, 10 mg/ml BR-GBD, 8 mg/ml SemDΔAPH + BR-GBD, 3.3 mg/l SemDΔAPH + SNX9-SH3; details: both partners purified
# T1 construct: SemD of Chlamydia pneumoniae (382 aa), N-terminally truncated up to and including the APH motif; residues 67-382 (G67-E382); from synthetic semD DNA codon optimised for E. coli; Monomer in solution by SAXS; also called SemDΔAPHHis; source: E. coli BL21 (DE3), purified (Ni-NTA Agarose, SEC); not shown: 10xHis, C-terminal, kept
# [1] = molecular target: T2, BR-GBD fused to GFP (BR-GBD_(GFP-His)) (Rattus norvegicus, UniProt O08816 142-273); assay: pull-down; GFP-Trap agarose, BR-GBD_(GFP-His) or GFP alone as bait, equimolar test protein, 5 min RT then 30 min 4 °C, washed 6x with 10 mM Tris-HCl, 200 mM NaCl, pH 8.5; immunoblot, Elution:FT ratio normalised to the bait; details: both partners purified
# T2 construct: amplified from GFP-N-WASP (Addgene #47406), in pDS94; source: E. coli BL21 (DE3), purified (Ni-NTA Agarose); not shown: GFP, C-terminal, kept; 10xHis, C-terminal, kept
# T2 sequence (O08816 142-273): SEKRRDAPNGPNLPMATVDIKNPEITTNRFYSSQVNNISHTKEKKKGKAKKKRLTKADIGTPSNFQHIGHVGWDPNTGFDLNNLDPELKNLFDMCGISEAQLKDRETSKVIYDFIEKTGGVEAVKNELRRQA
Binder,stoichiometry N (SemDΔAPH_(67-382)),normalised Elution:FT ratio [1]
B1,1,–
B2,–,~100%
